T1: TNF-like 1A (TL1A) (UniProt O95150 72-251)
T1 construct: TL1A (TNF-like 1A), the cytokine run over immobilised DR3 variants in SPR and added to cells; also called TL1A cytokine
T1 sequence (looked up): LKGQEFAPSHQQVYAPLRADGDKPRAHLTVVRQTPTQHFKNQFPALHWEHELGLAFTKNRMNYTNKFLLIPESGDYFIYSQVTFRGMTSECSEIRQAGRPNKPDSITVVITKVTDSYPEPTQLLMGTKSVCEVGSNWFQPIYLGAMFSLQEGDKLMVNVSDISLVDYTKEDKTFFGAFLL


Key:
Assay in all cases: SPR; ProteOn XPR36; DR3 variants (5 ug, acetate buffer pH 5.5) immobilised on a GLC chip, BSA as reference; TL1A run at 100, 50, 25, 12.5 and 6.25 nM, 30 ul/min, 300 s, 10 min dissociation; PBS with 2 mM DTT; Langmuir single binding site model
[1] = target: DR3 variant H3 (DR3 extracellular domain-Fc) (human) (UniProt Q93038)
[2] = target: DR3 variant O6 (DR3 extracellular domain-Fc) (human) (UniProt Q93038)
TNF-like 1A (TL1A) = target: T1, TNF-like 1A (TL1A); conditions: both partners purified

| Molecule | Kd [1] | koff [1] | kon [1] | Kd [2] | koff [2] | kon [2] | Kd (TNF-like 1A (TL1A)) | koff (TNF-like 1A (TL1A)) | kon (TNF-like 1A (TL1A)) |
| --- | --- | --- | --- | --- | --- | --- | --- | --- | --- |
| TNF-like 1A (TL1A) (from UniProt O95150 72-251) (ligand) | 8.26 nM | 0.000351 s⁻¹ | 42600 M⁻¹ s⁻¹ | 9.83 nM | 0.000357 s⁻¹ | 36300 M⁻¹ s⁻¹ | – | – | – |
| native DR3-Fc (human DR3 extracellular domain fused with human IgG1 Fc) (Fc fusion, UniProt Q93038 25-199, looked up, N-linked glycosylation (shown by Endo-H cleavage), amplified from an EST cDNA clone (Open Biosystems); pFUSE vector (Invivogen); also called WT; soluble native DR3; source: HEK293T, transfected, conditioned medium (ELISA screen); 293F (HEK293F), transfected, purified (MonoQ, SP, butyl HIC); not shown: Fc (human IgG1), C-terminal, kept) QGGTRSPRCDCAGDFHKKIGLFCCRGCPAGHYLKAPCTEPCGNSTCLVCPQDTFLAWENHHNSECARCQACDEQASQVALENCSAVADTRCGCKPGWFVECQVSQCVSSSPFYCQPCLDCGALHRHTRLLCSRRDTDCGTCLPGFYEHGDGCVSCPTSTLGSCPERCAAVCGWRQ | – | – | – | – | – | – | 44.9 nM | 0.00072 s⁻¹ | 16000 M⁻¹ s⁻¹ |
